The results in this text go back to the supplement of paper PMC10899765.

Holding throughout (details): 20 nM; 72 h
The subject of series [1] is MCF10A. The series can be described thus: percent viability (nuclei count relative to siNT); higher = more viable cells. Here is the method:
(§1)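 After 72 h, cells were fixed and stained with Hoechst and anti-fibrillarin, and nucleoli per nucleus were counted with CellProfiler. Values are plate-adjusted percent effect for the one-nucleolus and 5+ nucleoli phenotypes, normalised to siNT (0%) and to the positive controls siNOL11 or siKIF11 (100%), as the mean of biological triplicates. Percent viability is the nuclei count relative to siNT.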

Series [2] deals with MCF10A. Briefly: 5+ nucleoli phenotype percent effect (relative to siNT 0% and siKIF11 100%); higher = more cells with five or more nucleoli. Here is the method: as §1
Series [3] has as its system MCF10A. Briefly: one-nucleolus phenotype percent effect (relative to siNT 0% and siNOL11 100%); higher = more cells with one nucleolus (ribosome biogenesis inhibition). Here is the method: as §1

CUGGGUUGGGCUGGGCUGGG [hsa-miR-4507]: the percent viability in the series with MCF10A [1] turned out to be 28.4%. Also, in the series on MCF10A [2], the “5+ nucleoli phenotype percent effect” value is -11.1%. Besides, the “one-nucleolus phenotype percent effect” value in the series on MCF10A [3] is -1.41%.
On the same counts, the results for “UGUCUUUCUUCUCUCCCUUGCAG [hsa-miR-6830-3p]” are 19.9%, -30.3% and 58%.
The corresponding values for “UCCUACGCUGCUCUCUCACUCC [hsa-miR-6761-3p]” are 43.5%, 14.2% and -18.4%.
As for “UGGGAAAGACAAACUCAGAGUU [hsa-miR-6733-5p]”, the percent viability in the series on MCF10A [1] stood at 23.6%. Moreover, the “5+ nucleoli phenotype percent effect” value in the series with MCF10A [2] turned out to be 8.82%. The “one-nucleolus phenotype percent effect” value with MCF10A [3] amounted to 5.71%.
For “UUUGGGAUUGACGCCACAUGUCU [hsa-miR-6513-5p]”, the percent viability with MCF10A [1] came out at 72.6%. Further, the “5+ nucleoli phenotype percent effect” value with MCF10A [2] was determined as 91.1%. In addition, the “one-nucleolus phenotype percent effect” value with MCF10A [3] is -20.1%.
On the same counts, the results for AGCGGUGCUCCUGCGGGCCGA [hsa-miR-4746-3p] are 34.7%, -33% and 35.6%.
The corresponding values for UCUGGUGUAUAGCGUUGCUCA [hsa-miR-7978] are 27.6%, -4.49% and 19.2%.
The corresponding values for AGGAGGAAUUGGUGCUGGUCUU [hsa-miR-766-5p] are 5.17%, -33% and 33.8%.
Consider GUGGCUCUGUAGUAAGAUGGA [hsa-miR-8057], for which the percent viability in the series with MCF10A [1] is 44.7%. In the series with MCF10A [2], the “5+ nucleoli phenotype percent effect” value came to 6.17%. Also, the “one-nucleolus phenotype percent effect” value with MCF10A [3] was found to be 6.14%.
On the same counts, the results for CAGCCCCACAGCCUCAGA [hsa-miR-4323] are 39.3%, -13.4% and 2.83%.
On the same counts, the results for UGUGCGCAGGGAGACCUCUCCC [hsa-miR-933] are 78.3%, -8.45% and 4.65%.
On the same counts, the results for CCAAUUACCACUUCUUU [hsa-miR-4275] are 74.6%, 23.8% and -17.6%.
Regarding “AGGGCCGAAGGGUGGAAGCUGC [hsa-miR-6877-5p]”, the percent viability with MCF10A [1] came to 41.7%. In the series on MCF10A [2], the “5+ nucleoli phenotype percent effect” value is -6.96%. Besides, in the series on MCF10A [3], the “one-nucleolus phenotype percent effect” value was 10.5%.
On the same counts, the results for “UAAUACUGCCUGGUAAUGAUGA [hsa-miR-200b-3p]” are 104%, 93.4% and -28.6%.
On the same counts, the results for “UCCCCUUCUGCAGGCCUGCUGG [hsa-miR-3127-3p]” are 144%, 34.9% and -24.5%.
For “UAGCCUUCAGAUCUUGGUGUUUU [hsa-miR-3614-3p]”, the percent viability with MCF10A [1] came to 51.5%. In addition, the “5+ nucleoli phenotype percent effect” value in the series on MCF10A [2] is -23.5%. Moreover, the “one-nucleolus phenotype percent effect” value in the series on MCF10A [3] amounted to 28.6%.
On the same counts, the results for GGUGGGCUUCCCGGAGGG [hsa-miR-4417] are 77.8%, 35.5% and -24.2%.
On the same counts, the results for UGUCUGCCCGCAUGCCUGCCUCU [hsa-miR-346] are 32.5%, -26.4% and 31%.
The corresponding values for UCUAGAAAUGCAUGACCCACC [hsa-miR-6508-5p] are 112%, 17.2% and -15.2%.
As for UGUGGACAGUGAGGUAGAGGGAGU [hsa-miR-3138], in the series on MCF10A [1], the percent viability came to 47.9%. The “5+ nucleoli phenotype percent effect” value with MCF10A [2] stood at 2.7%. The “one-nucleolus phenotype percent effect” value in the series with MCF10A [3] was -2.72%.
On the same counts, the results for “CCUUCACUGUGACUCUGCUGCAG [hsa-miR-6837-3p]” are 180%, 50.7% and -30.8%.
Turning to “UCUUCACCUGCCUCUGCCUGCA [hsa-miR-6754-3p]”, the percent viability in the series with MCF10A [1] was 71.5%. Also, the “5+ nucleoli phenotype percent effect” value in the series with MCF10A [2] is 15.2%. In addition, the “one-nucleolus phenotype percent effect” value in the series with MCF10A [3] was -24.7%.
For the sequence “AGGUCUGCAUUCAAAUCCCCAGA [hsa-miR-6503-5p]”, the percent viability in the series with MCF10A [1] was 43.4%. In the series on MCF10A [2], the “5+ nucleoli phenotype percent effect” value was 10.7%. The “one-nucleolus phenotype percent effect” value in the series on MCF10A [3] came to 3.05%.
The corresponding values for “UCUCACCCCAACUCUGCCCCAG [hsa-miR-6784-3p]” are 56.5%, 44.3% and -25.6%.
